Data on eight proteins can be found in article PMC5493697, “Crystal structure of Pelagibacterium halotolerans PE8: New insight into its substrate-binding pattern” (Scientific Reports, 2017).

The labels stand for the following.
B1: PE8 (Pelagibacterium halotolerans B2; S118A) (protein)
chain: MTEPVKLSGPMLPAVSGAAKSLVVLLHGYGSDGRDLIALGQFWRDSFPDTMFVAPNAPHVCGGNPFGYEWFPLDLERDRTLARLAGAETAHPVLDAFLADLWAQTGLGPADTILVGFAQGAMMALYTGLRLPEPLKAIIAFSGLIVAPEKLEAEIASKPPVLLIHGDLDDVVPVIGSETALPKLIDLGIDARLHISQGSGHTIAQDGLDTATAFLREIL
notes: 6xHis fusion from pET28b in E. coli Rosetta (DE3), Ni-NTA and SEC; monomer; catalytic triad Ser118, Asp169, His201
B2: PE8 (Pelagibacterium halotolerans B2; R83A) (protein)
chain: MTEPVKLSGPMLPAVSGAAKSLVVLLHGYGSDGRDLIALGQFWRDSFPDTMFVAPNAPHVCGGNPFGYEWFPLDLERDRTLAALAGAETAHPVLDAFLADLWAQTGLGPADTILVGFSQGAMMALYTGLRLPEPLKAIIAFSGLIVAPEKLEAEIASKPPVLLIHGDLDDVVPVIGSETALPKLIDLGIDARLHISQGSGHTIAQDGLDTATAFLREIL
notes: as for B1
B3: PE8 (Pelagibacterium halotolerans B2; V172A) (protein)
chain: MTEPVKLSGPMLPAVSGAAKSLVVLLHGYGSDGRDLIALGQFWRDSFPDTMFVAPNAPHVCGGNPFGYEWFPLDLERDRTLARLAGAETAHPVLDAFLADLWAQTGLGPADTILVGFSQGAMMALYTGLRLPEPLKAIIAFSGLIVAPEKLEAEIASKPPVLLIHGDLDDVAPVIGSETALPKLIDLGIDARLHISQGSGHTIAQDGLDTATAFLREIL
notes: as for B1
B4: PE8 (Pelagibacterium halotolerans B2; M122A) (protein)
chain: MTEPVKLSGPMLPAVSGAAKSLVVLLHGYGSDGRDLIALGQFWRDSFPDTMFVAPNAPHVCGGNPFGYEWFPLDLERDRTLARLAGAETAHPVLDAFLADLWAQTGLGPADTILVGFSQGAAMALYTGLRLPEPLKAIIAFSGLIVAPEKLEAEIASKPPVLLIHGDLDDVVPVIGSETALPKLIDLGIDARLHISQGSGHTIAQDGLDTATAFLREIL
notes: as for B1
B5: PE8 (Pelagibacterium halotolerans B2) (protein)
chain: MTEPVKLSGPMLPAVSGAAKSLVVLLHGYGSDGRDLIALGQFWRDSFPDTMFVAPNAPHVCGGNPFGYEWFPLDLERDRTLARLAGAETAHPVLDAFLADLWAQTGLGPADTILVGFSQGAMMALYTGLRLPEPLKAIIAFSGLIVAPEKLEAEIASKPPVLLIHGDLDDVVPVIGSETALPKLIDLGIDARLHISQGSGHTIAQDGLDTATAFLREIL
notes: as for B1
B6: PE8 (Pelagibacterium halotolerans B2; R79A) (protein)
chain: MTEPVKLSGPMLPAVSGAAKSLVVLLHGYGSDGRDLIALGQFWRDSFPDTMFVAPNAPHVCGGNPFGYEWFPLDLERDATLARLAGAETAHPVLDAFLADLWAQTGLGPADTILVGFSQGAMMALYTGLRLPEPLKAIIAFSGLIVAPEKLEAEIASKPPVLLIHGDLDDVVPVIGSETALPKLIDLGIDARLHISQGSGHTIAQDGLDTATAFLREIL
notes: as for B1
B7: PE8 (Pelagibacterium halotolerans B2; V171A) (protein)
chain: MTEPVKLSGPMLPAVSGAAKSLVVLLHGYGSDGRDLIALGQFWRDSFPDTMFVAPNAPHVCGGNPFGYEWFPLDLERDRTLARLAGAETAHPVLDAFLADLWAQTGLGPADTILVGFSQGAMMALYTGLRLPEPLKAIIAFSGLIVAPEKLEAEIASKPPVLLIHGDLDDAVPVIGSETALPKLIDLGIDARLHISQGSGHTIAQDGLDTATAFLREIL
notes: as for B1
B8: PE8 (Pelagibacterium halotolerans B2; L73A) (protein)
chain: MTEPVKLSGPMLPAVSGAAKSLVVLLHGYGSDGRDLIALGQFWRDSFPDTMFVAPNAPHVCGGNPFGYEWFPADLERDRTLARLAGAETAHPVLDAFLADLWAQTGLGPADTILVGFSQGAMMALYTGLRLPEPLKAIIAFSGLIVAPEKLEAEIASKPPVLLIHGDLDDVVPVIGSETALPKLIDLGIDARLHISQGSGHTIAQDGLDTATAFLREIL
notes: as for B1

As usually defined, the Km is the substrate concentration at which the rate is half of its maximum. In general, Vmax refers to the rate approached at saturating substrate. As usually defined, the kcat is the maximal rate divided by the concentration of active sites.

Substrate in the series: CC(=O)Oc1ccc([N+](=O)[O-])cc1
The experiment in a line: purified protein. Type of series: biochemical, Pelagibacterium halotolerans. The settings on record: 100 mM Tris-HCl pH 7.5, 30 °C, 0.05-4 mM substrate in acetonitrile.
In the case of B1, the Km was 540 ± 46 µM, the Vmax was 12 µM/min/mg and the turnover number (kcat) was found to be 5.1 ± 0.14 s⁻¹.

Take B2: the Km was determined as 600 ± 23 µM, the Vmax is 97 µM/min/mg and the kcat was 41 ± 0.42 s⁻¹.

As to B3, the Km is 500 ± 35 µM, the Vmax was determined as 82 µM/min/mg and the kcat worked out at 35 ± 0.63 s⁻¹.

For the protein B4, the Michaelis constant (Km) was found to be 75 ± 6.9 µM, the Vmax is 96 µM/min/mg and the kcat worked out at 40 ± 0.68 s⁻¹.

Take B5: the Km is 660 ± 49 µM, the Vmax was 71 µM/min/mg and the kcat amounted to 30 ± 0.68 s⁻¹.

As to B6, the Km stood at 600 ± 62 µM, the Vmax came out at 132 µM/min/mg and the kcat was 55 ± 1.7 s⁻¹.

Consider B7, for which the Km was determined as 890 ± 70 µM, the Vmax is 36 µM/min/mg and the kcat was 19 ± 0.42 s⁻¹.

Turning to B8, the Km came out at 530 ± 26 µM, the Vmax was 55 µM/min/mg and the kcat came to 23 ± 0.27 s⁻¹.
